The supplement of paper PMC9112550, “Optimization of the antimicrobial peptide Bac7 by deep mutational scanning” (BMC Biology, 2022)

Tested on: Escherichia coli TOP10
Assay: shrunken log2 fold change of peptide-encoding DNA abundance (4.5 h post-induction vs induction); higher = less antimicrobial activity (less host growth inhibition)
Conditions: time post-induction: 4.5 h; library: site-saturation at positions 5, 18, 19, 20
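Note: peptides expressed intracellularly from a pBAD plasmid library in pooled LB shake-flask culture, induced with 0.3% L-arabinose, DNA abundance read by NGS, three biological replicates, DESeq2 with apeglm shrinkage.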

Row | Sequence | shrunken log2 fold change
1 | RRIRFRPPRLPRPRPRPLYYPRP | -0.885
2 | RRIRFRPPRLPRPRPRPMATPRP | -0.227
3 | RRIRFRPPRLPRPRPRPMCFPRP | -0.256
4 | RRIRFRPPRLPRPRPRPMCQPRP | -0.123
5 | RRIRFRPPRLPRPRPRPMDPPRP | 0.0482
6 | RRIRFRPPRLPRPRPRPMEVPRP | -0.00205
7 | RRIRFRPPRLPRPRPRPMFIPRP | -0.443
8 | RRIRFRPPRLPRPRPRPMGNPRP | -0.707
9 | RRIRFRPPRLPRPRPRPMIGPRP | 0.0266
10 | RRIRFRPPRLPRPRPRPMIKPRP | -0.749
11 | RRIRFRPPRLPRPRPRPMIMPRP | 0.234
12 | RRIRFRPPRLPRPRPRPMKGPRP | -0.0547
13 | RRIRFRPPRLPRPRPRPMLDPRP | -0.365
14 | RRIRFRPPRLPRPRPRPMMLPRP | -0.139
15 | RRIRFRPPRLPRPRPRPMNFPRP | -0.283
16 | RRIRFRPPRLPRPRPRPMPQPRP | -0.0791
17 | RRIRFRPPRLPRPRPRPMQLPRP | 0.0166
18 | RRIRFRPPRLPRPRPRPMRPPRP | 0.654
19 | RRIRFRPPRLPRPRPRPMRYPRP | 0.0824
20 | RRIRFRPPRLPRPRPRPMVHPRP | -0.468
21 | RRIRFRPPRLPRPRPRPMVTPRP | -0.138
22 | RRIRFRPPRLPRPRPRPMWEPRP | -0.232
23 | RRIRFRPPRLPRPRPRPMWYPRP | -0.0081
24 | RRIRFRPPRLPRPRPRPNAPPRP | 0.0925
25 | RRIRFRPPRLPRPRPRPNAYPRP | -0.347

Row | Sequence | shrunken log2 fold change
26 | RRIRFRPPRLPRPRPRPNCDPRP | -0.144
27 | RRIRFRPPRLPRPRPRPNCFPRP | -0.193
28 | RRIRFRPPRLPRPRPRPNDWPRP | -0.271
29 | RRIRFRPPRLPRPRPRPNEPPRP | -0.00783
30 | RRIRFRPPRLPRPRPRPNEQPRP | 0.027
31 | RRIRFRPPRLPRPRPRPNFGPRP | 0.0849
32 | RRIRFRPPRLPRPRPRPNFMPRP | -0.0155
33 | RRIRFRPPRLPRPRPRPNFNPRP | -0.554
34 | RRIRFRPPRLPRPRPRPNHGPRP | -0.4
35 | RRIRFRPPRLPRPRPRPNIRPRP | -0.184
36 | RRIRFRPPRLPRPRPRPNLQPRP | -0.264
37 | RRIRFRPPRLPRPRPRPNMTPRP | -0.43
38 | RRIRFRPPRLPRPRPRPNNTPRP | -0.999
39 | RRIRFRPPRLPRPRPRPNPCPRP | -0.349
40 | RRIRFRPPRLPRPRPRPNPSPRP | -0.125
41 | RRIRFRPPRLPRPRPRPNRFPRP | -0.174
42 | RRIRFRPPRLPRPRPRPNRKPRP | -0.173
43 | RRIRFRPPRLPRPRPRPNRNPRP | -0.836
44 | RRIRFRPPRLPRPRPRPNSFPRP | -0.894
45 | RRIRFRPPRLPRPRPRPNSPPRP | -0.462
46 | RRIRFRPPRLPRPRPRPNTGPRP | -0.165
47 | RRIRFRPPRLPRPRPRPNTKPRP | -0.323
48 | RRIRFRPPRLPRPRPRPNTQPRP | -0.309
49 | RRIRFRPPRLPRPRPRPNVPPRP | -0.0369
50 | RRIRFRPPRLPRPRPRPNVVPRP | -0.046

Row | Sequence | shrunken log2 fold change
51 | RRIRFRPPRLPRPRPRPNWSPRP | -0.0531
52 | RRIRFRPPRLPRPRPRPNYPPRP | -0.268
53 | RRIRFRPPRLPRPRPRPPAWPRP | 0.354
54 | RRIRFRPPRLPRPRPRPPCKPRP | 0.352
55 | RRIRFRPPRLPRPRPRPPCYPRP | -0.227
56 | RRIRFRPPRLPRPRPRPPDCPRP | 0.191
57 | RRIRFRPPRLPRPRPRPPDSPRP | 0.0539
58 | RRIRFRPPRLPRPRPRPPESPRP | 1.13
59 | RRIRFRPPRLPRPRPRPPGTPRP | 0.316
60 | RRIRFRPPRLPRPRPRPPHAPRP | 0.491
61 | RRIRFRPPRLPRPRPRPPHLPRP | -0.0216
62 | RRIRFRPPRLPRPRPRPPIDPRP | 0.113
63 | RRIRFRPPRLPRPRPRPPKKPRP | 0.847
64 | RRIRFRPPRLPRPRPRPPMEPRP | -0.0751
65 | RRIRFRPPRLPRPRPRPPNGPRP | -0.0591
66 | RRIRFRPPRLPRPRPRPPPGPRP | 1.34
67 | RRIRFRPPRLPRPRPRPPPVPRP | 1.43
68 | RRIRFRPPRLPRPRPRPPQWPRP | 0.384
69 | RRIRFRPPRLPRPRPRPPRAPRP | 0.92
70 | RRIRFRPPRLPRPRPRPPRCPRP | 0.612
71 | RRIRFRPPRLPRPRPRPPRTPRP | 0.579
72 | RRIRFRPPRLPRPRPRPPSCPRP | 0.337
73 | RRIRFRPPRLPRPRPRPPSQPRP | -0.0751
74 | RRIRFRPPRLPRPRPRPPTNPRP | 0.236
75 | RRIRFRPPRLPRPRPRPPVYPRP | -0.124
